Measurements published in US20250011397A1.

Experiments:
[1] = target: SARS-CoV-2 Spike on HIV-based pseudotyped virus (Spike plasmid BEI NR52310) (SARS-CoV-2) (UniProt P0DTC2); test: cell-based or functional assay
mouse FcRn (mouse) [2] = target: mouse FcRn (mouse) (UniProt Q61559); test: pH 5.6
mouse FcRn (mouse) [3] = target: mouse FcRn (mouse) (UniProt Q61559)
mouse FcγRI (mouse) = mouse FcγRI (mouse) (UniProt P26151)
mouse FcγRI (mouse), sequence (P26151 25-297 limits assumed): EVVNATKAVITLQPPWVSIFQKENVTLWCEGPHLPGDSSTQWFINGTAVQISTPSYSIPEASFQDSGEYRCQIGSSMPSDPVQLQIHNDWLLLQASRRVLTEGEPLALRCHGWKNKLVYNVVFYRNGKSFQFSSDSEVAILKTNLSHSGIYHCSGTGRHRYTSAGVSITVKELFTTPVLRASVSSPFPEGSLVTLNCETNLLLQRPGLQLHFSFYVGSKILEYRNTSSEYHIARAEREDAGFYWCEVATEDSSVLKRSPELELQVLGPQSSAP

mouse FcRn (mouse), sequence (Q61559 22-297 limits assumed, form in doubt, chain 1 of 2): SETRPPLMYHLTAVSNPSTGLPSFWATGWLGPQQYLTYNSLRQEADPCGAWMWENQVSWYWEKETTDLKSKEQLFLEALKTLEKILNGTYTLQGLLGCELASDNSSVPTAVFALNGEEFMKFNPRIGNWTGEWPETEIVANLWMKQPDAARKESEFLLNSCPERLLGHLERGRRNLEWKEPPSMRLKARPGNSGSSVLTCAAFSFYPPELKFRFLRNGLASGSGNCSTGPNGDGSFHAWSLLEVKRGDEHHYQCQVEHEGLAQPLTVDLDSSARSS
mouse FcRn (mouse), sequence (chain, as listed by the source limits assumed, form in doubt, chain 2 of 2): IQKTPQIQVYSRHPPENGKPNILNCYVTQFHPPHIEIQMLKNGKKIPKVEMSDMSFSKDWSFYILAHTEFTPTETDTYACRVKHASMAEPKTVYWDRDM

| Substance | IC50 (PsV neutralization) [1] | Kd (mouse FcRn (mouse) [2]) | koff (mouse FcRn (mouse) [2]) | kon (mouse FcRn (mouse) [3]) | Kd (mouse FcγRI (mouse)) | koff (mouse FcγRI (mouse)) | kon (mouse FcγRI (mouse)) |
| --- | --- | --- | --- | --- | --- | --- | --- |
| REGN10933 (recombinant mAb, reference IgG) (antibody) | 0.0044 µg/mL | – | – | – | – | – | – |
| REGN10987 (recombinant mAb, reference IgG) (antibody) | 0.03 µg/mL | – | – | – | – | – | – |
| mouse surrogate Multabody (HD37, mouse IgG2a Fc, mouse apoferritin), WT Fc | – | < 1 pM | < 1e-07 s⁻¹ | 682000 M⁻¹ s⁻¹ | < 1 pM | < 1e-07 s⁻¹ | 939000 M⁻¹ s⁻¹ |
| mouse surrogate Multabody with LALAP Fc | – | < 1 pM | < 1e-07 s⁻¹ | 2.4e+06 M⁻¹ s⁻¹ | – | – | – |
